Experimental data taken from paper PMC4351179.

Target: human DNA polymerase theta (Polθ), polymerase domain, wild type (human)
Assay: SEC

stoichiometry N: 2
Substance: human DNA polymerase theta (Polθ), polymerase domain, wild type (domain or fragment)
